One molecule from article PMC3815138, “Dynamic Interplay between the Periplasmic and Transmembrane Domains of GspL and GspM in the Type II Secretion System” (PLoS ONE, 2013) can be followed below.

One assay has as its target T1, GST-OutC (Dickeya dadantii, UniProt Q01564 1-272).
T1 construct: OutC (GspC), type II secretion system of Dickeya dadantii; also called full-length OutC carrying a GST-tag; source: E. coli BL21(DE3), pGEX-6P-3 plasmid; immobilized on Glutathione Sepharose
The assay is described as follows: pull-down; GST-Out derivatives immobilized on Glutathione Sepharose as baits; His-OutC purified by nickel affinity as prey, incubated 1 h; 1% Triton X-100, 15°C; five washes; immunoblot. As to conditions: both partners purified. For orientation: A western blot detects proteins with antibodies after separation by electrophoresis.

The next assay concerns the target T2, GST-OutL (Dickeya dadantii, UniProt E0SLF6 1-400).
T2 construct: OutL (GspL), type II secretion system of Dickeya dadantii; also called full-length OutL carrying a GST-tag; source: E. coli BL21(DE3), pGEX-6P-3 plasmid; immobilized on Glutathione Sepharose
T2 sequence: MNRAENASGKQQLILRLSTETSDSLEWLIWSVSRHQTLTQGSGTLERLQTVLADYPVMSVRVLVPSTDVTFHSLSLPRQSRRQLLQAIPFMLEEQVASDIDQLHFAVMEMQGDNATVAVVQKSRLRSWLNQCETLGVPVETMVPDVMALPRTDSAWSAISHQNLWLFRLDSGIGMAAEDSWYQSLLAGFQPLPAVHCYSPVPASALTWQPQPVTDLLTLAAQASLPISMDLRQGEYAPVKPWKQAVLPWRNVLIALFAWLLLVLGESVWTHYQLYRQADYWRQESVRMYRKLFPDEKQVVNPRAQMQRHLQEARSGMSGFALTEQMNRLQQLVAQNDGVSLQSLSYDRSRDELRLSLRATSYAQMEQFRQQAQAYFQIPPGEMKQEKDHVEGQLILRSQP
The description is as above. The settings on record: both partners purified.

B1: His-OutC (natural protein)
chain: not shown
notes: OutC (GspC), bitopic inner membrane component of the type II secretion system of Dickeya dadantii; also called GspC; full-length OutC; source: E. coli BL21(DE3), pET20b(+) plasmid
B1: the binding result in the assay with GST-OutC and with GST-OutL was “binds” each time.
